Assay results published in PMC10914751.

Biological target: Plk4 CPB (in vitro binding, Supplementary Fig. 3i)
Sequence (O00444 whole entry): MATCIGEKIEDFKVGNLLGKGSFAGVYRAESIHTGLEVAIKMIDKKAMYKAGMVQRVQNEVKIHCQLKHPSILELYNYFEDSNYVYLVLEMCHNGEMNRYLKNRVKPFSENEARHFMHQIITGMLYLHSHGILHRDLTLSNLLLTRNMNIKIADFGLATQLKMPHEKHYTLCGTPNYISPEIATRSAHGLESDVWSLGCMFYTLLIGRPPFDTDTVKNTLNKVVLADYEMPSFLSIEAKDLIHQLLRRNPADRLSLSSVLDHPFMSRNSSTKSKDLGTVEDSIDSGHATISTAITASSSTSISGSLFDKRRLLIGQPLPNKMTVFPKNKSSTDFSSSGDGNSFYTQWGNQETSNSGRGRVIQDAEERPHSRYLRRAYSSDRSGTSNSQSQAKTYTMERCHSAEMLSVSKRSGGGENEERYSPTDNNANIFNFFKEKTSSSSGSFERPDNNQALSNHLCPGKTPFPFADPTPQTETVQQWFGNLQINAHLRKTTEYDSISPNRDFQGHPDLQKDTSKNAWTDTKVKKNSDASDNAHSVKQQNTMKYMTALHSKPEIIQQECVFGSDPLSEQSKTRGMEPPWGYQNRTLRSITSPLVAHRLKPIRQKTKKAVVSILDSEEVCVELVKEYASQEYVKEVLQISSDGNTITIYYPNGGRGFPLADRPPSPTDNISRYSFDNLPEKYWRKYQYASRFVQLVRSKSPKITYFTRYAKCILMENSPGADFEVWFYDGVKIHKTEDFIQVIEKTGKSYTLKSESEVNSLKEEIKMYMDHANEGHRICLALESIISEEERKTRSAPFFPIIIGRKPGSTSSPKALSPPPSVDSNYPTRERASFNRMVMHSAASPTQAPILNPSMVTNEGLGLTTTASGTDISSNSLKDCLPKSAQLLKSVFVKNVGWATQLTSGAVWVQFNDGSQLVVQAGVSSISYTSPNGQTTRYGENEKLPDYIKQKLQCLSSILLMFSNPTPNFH

Substance: recombinant Vpr (from UniProt P12520 1-96) (natural protein)
- in vitro kinase assay: trans-autophosphorylation of the SSTT motif (S698, S700, T704, T707) of GST-Plk4(1–836; ∆PB3) in the presence of Vpr•VprBP, but not Vpr(1–79)•VprBP; anti-p-SSTT immunoblot: 1.8 fold
